Measured values reported in patent publication US20260232769A1 (WUXI BIOLOGICS IRELAND, published 2026).

T1: IL-2Rβ/γc complex (intermediate affinity receptor) on primary human CD8+ T cells (human, UniProt P14784 27-551; P31785 23-369)
T1 sequence (looked up) 1: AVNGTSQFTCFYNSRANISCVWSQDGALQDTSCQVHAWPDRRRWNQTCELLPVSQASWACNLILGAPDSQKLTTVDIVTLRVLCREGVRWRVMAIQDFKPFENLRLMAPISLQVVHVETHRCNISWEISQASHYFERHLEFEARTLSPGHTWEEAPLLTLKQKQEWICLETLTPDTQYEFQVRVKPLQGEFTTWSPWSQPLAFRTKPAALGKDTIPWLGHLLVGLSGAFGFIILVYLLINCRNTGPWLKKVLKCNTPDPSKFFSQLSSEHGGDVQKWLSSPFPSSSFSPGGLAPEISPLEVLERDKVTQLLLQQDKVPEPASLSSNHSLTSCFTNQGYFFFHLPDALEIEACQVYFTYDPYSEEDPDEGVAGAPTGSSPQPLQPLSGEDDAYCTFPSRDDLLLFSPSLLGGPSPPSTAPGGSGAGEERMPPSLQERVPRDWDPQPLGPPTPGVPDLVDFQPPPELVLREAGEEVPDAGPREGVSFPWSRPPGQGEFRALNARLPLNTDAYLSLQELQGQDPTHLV
T1 sequence (looked up) 2: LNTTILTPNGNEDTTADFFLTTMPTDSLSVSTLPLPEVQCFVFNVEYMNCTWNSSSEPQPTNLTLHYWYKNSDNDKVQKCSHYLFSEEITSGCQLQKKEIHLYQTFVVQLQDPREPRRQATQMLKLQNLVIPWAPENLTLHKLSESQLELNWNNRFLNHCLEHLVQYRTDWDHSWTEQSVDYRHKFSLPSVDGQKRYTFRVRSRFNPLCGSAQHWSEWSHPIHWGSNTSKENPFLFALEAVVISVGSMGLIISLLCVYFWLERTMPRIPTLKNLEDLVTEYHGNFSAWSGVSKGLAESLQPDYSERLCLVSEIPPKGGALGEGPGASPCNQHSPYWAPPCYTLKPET


Biological target: T1, IL-2Rβ/γc complex (intermediate …)
Assay: cell-based or functional assay

Binder | Potency reduction, pSTAT5, human primary CD8+ T | pSTAT5 EC50, human primary CD8+ T
W3XX115-T2U0.E44-40.uIgG4V322 (Fc fusion) APTSSSTKKTQLQLEHLLLDLQMILNGINNYKNPKLTRMLTFKFYMPKKATELKHLQCLEEELKPLEEVLNLAQSKNFHLRPRDLISNINVIVLELKGSETTFMCEYADRTATIVEFLNRWITFCQSIIESKYGPPCPPCPAPEAAGGPSVFLFPPKPKDTLMISRTPEVTCVVVDVSQEDPEVQFNWYVDGVEVHNAKTKPREEQFNSTYRVVSVLTVLHQDWLNGKEYKCKVSNKGLPSSIEKTISKAKGQPREPQVYTLPPCQEEMTKNQVSLWCLVKGFYPSDIAVEWESNGQPENNYKTTPPVLDSDGSFFLYSRLTVDKSRWQEGNVFSCSVMHEALHNHYTQKSLSLSLG heavy: EIQLQQSGPELVKPGASVKVSCKASGYSFTDYNMYWVKQSHGESLEWIGYIDPYNGGTRYNQKFKGKATLTVDKSSSTAFMHLNSLTSEDSAVYYCARNGHWDGAWFAYWGQGTLVTVSAASTKGPSVFPLAPCSRSTSESTAALGCLVKDYFPEPVTVSWNSGALTSGVHTFPAVLQSSGLYSLSSVVTVPSSSLGTKTYTCNVDHKPSNTKVDKRVESKYGPPCPPCPAPEAAGGPSVFLFPPKPKDTLMISRTPEVTCVVVDVSQEDPEVQFNWYVDGVEVHNAKTKPREEQFNSTYRVVSVLTVLHQDWLNGKEYKCKVSNKGLPSSIEKTISKAKGQPREPQVCTLPPSQEEMTKNQVSLSCAVKGFYPSDIAVEWESNGQPENNYKTTPPVLDSDGSFFLVSRLTVDKSRWQEGNVFSCSVMHEALHNHYTQKSLSLSLG light: DIQMNQSPSSLSASLGDTITITCHASQNINVWLSWYQQKPGNIPKLLIYKASNLHTGVPSRFSGSRSGTGFTLTISSLQPEDIATYYCHQGQSYPFTFGSGTKLEIKRTVAAPSVFIFPPSDEQLKSGTASVVCLLNNFYPREAKVQWKVDNALQSGNSQESVTEQDSKDSTYSLSSTLTLSKADYEKHKVYACEVTHQGLSSPVTKSFNRGEC | 36.9 fold | 282 nM
W3XX115-T2U0.E44-43.uIgG4V322 (Fc fusion) APTSSSTKKTQLQLEHLLLDLQMILNGINNYDNPKLTRMLTFKFYMPKKATELKHLQCLEEELKPLEEVLNLAQSKNFHLRPRDLISNINVIVLELKGSETTFMCEYADETATIVEFLNRWITFCQSIIESKYGPPCPPCPAPEAAGGPSVFLFPPKPKDTLMISRTPEVTCVVVDVSQEDPEVQFNWYVDGVEVHNAKTKPREEQFNSTYRVVSVLTVLHQDWLNGKEYKCKVSNKGLPSSIEKTISKAKGQPREPQVYTLPPCQEEMTKNQVSLWCLVKGFYPSDIAVEWESNGQPENNYKTTPPVLDSDGSFFLYSRLTVDKSRWQEGNVFSCSVMHEALHNHYTQKSLSLSLG heavy: EIQLQQSGPELVKPGASVKVSCKASGYSFTDYNMYWVKQSHGESLEWIGYIDPYNGGTRYNQKFKGKATLTVDKSSSTAFMHLNSLTSEDSAVYYCARNGHWDGAWFAYWGQGTLVTVSAASTKGPSVFPLAPCSRSTSESTAALGCLVKDYFPEPVTVSWNSGALTSGVHTFPAVLQSSGLYSLSSVVTVPSSSLGTKTYTCNVDHKPSNTKVDKRVESKYGPPCPPCPAPEAAGGPSVFLFPPKPKDTLMISRTPEVTCVVVDVSQEDPEVQFNWYVDGVEVHNAKTKPREEQFNSTYRVVSVLTVLHQDWLNGKEYKCKVSNKGLPSSIEKTISKAKGQPREPQVCTLPPSQEEMTKNQVSLSCAVKGFYPSDIAVEWESNGQPENNYKTTPPVLDSDGSFFLVSRLTVDKSRWQEGNVFSCSVMHEALHNHYTQKSLSLSLG light: DIQMNQSPSSLSASLGDTITITCHASQNINVWLSWYQQKPGNIPKLLIYKASNLHTGVPSRFSGSRSGTGFTLTISSLQPEDIATYYCHQGQSYPFTFGSGTKLEIKRTVAAPSVFIFPPSDEQLKSGTASVVCLLNNFYPREAKVQWKVDNALQSGNSQESVTEQDSKDSTYSLSSTLTLSKADYEKHKVYACEVTHQGLSSPVTKSFNRGEC | 17.6 fold | 135 nM
